Laboratory results from PMC6762210, “The monothiol glutaredoxin GrxD is essential for sensing iron starvation in Aspergillus fumigatus” (PLoS Genetics, 2019).
Numbering of substitutions follows the chain as printed. Names and notes keep the numbering of the source.

T1: GrxD (recombinant full-length GrxD after removal of the His-tag by TEV protease) (A. fumigatus, UniProt Q4X024 1-271)
T1 construct: GrxD of Aspergillus fumigatus (Afu2g14960), full length, from a synthetic gene; Residues of the TEV site may be left at the C-terminus after cleavage (surmise); source: E. coli BL21(DE3), co-expressed with HapX^161-491, purified (Ni-Sepharose, TEV protease, Superdex 200 SEC); not shown: His6, C-terminal, cleaved
T1 sequence (looked up): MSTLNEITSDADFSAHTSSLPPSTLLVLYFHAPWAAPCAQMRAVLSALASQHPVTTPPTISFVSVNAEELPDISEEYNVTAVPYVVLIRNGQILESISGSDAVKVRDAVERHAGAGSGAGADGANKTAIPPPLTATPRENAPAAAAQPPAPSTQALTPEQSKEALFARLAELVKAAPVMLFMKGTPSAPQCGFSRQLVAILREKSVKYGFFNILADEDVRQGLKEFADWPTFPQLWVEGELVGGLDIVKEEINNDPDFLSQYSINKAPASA

B1: HapX^161-491 (A. fumigatus HapX C-terminus with all four cysteine-rich regions) (domain or fragment, UniProt Q4WER3 161-491, looked up)
chain: KGLAPLTTSTPQARSSDRPDNGDASNNDSGEGREEVPLGCNDCSTSHCQCIEDAFTMPGVVAQEQSRRLDTTKPGLSEPQIKPDPEEMEIDFTSRFAATQQQDQSPTSVSSPAVDPCGFCSDGTPCICAEMAAQEEQRPRRNSFENNRLAPIQNLSQFTPPPSDGDVRSDVTLPPISQATNPCANGPGTCAQCLADPRRTLFCKTLAASRSPSAAPSGCCGGKGADGGCCQSRNTNVSRGRSGSNNNTSSGSSAAPSLTLSCADAYTTLSRHPNFSRATDELSTWLPKLHTLPKPRDFPLTDRGVPRAALEVEAASVMGVLRYFDRRFADK
notes: HapX of Aspergillus fumigatus (Afu5g03920), amino acids 161-491 (cysteine-rich C-terminus), from a synthetic gene; also called AfuHapX^161-491; pnCS-HapX161-491; source: E. coli BL21(DE3), untagged, bicistronically co-expressed with GrxD-His6; in crude cell extract, then co-purified (Ni-Sepharose, SEC)
B2: GrxD^C191A (recombinant GrxD with cysteine 191 mutated to alanine) (natural protein)
chain: T1 sequence (looked up) with C191A
notes: GrxD of Aspergillus fumigatus (Afu2g14960), full length, C191 of the CGFS motif mutated to A; source: E. coli BL21(DE3), co-produced with HapX^161-491, purified (Ni-chelate, TEV protease, SEC); not shown: His6, C-terminal, cleaved

What was measured:
[1] = molecular target: T1, GrxD (recombinant full-length GrxD …); experiment: SEC; Ni-chelate eluate digested with TEV protease and loaded on Superdex 200 prep grade 26/60 in 25 mM HEPES pH 7.5, 150 mM NaCl, 2 mM glutathione; apparent masses from protein calibration standards; fractions checked by SDS-PAGE; conditions: both partners purified
[2] = molecular target: B1; experiment: as above; conditions: both partners purified

Binder | stoichiometry N [1] | binding result [2]
B1 | ~1 HapX^161-491 per GrxD (2:2) | 
B2 |  | binds
